Source: paper PMC7885266 (Chemical Science, 2020)
“And” between values parts separate entries of the source, which are not always exact repeats. Equal entries are not always repeated.

T1: 3TBP-CTPR6
T1 chain: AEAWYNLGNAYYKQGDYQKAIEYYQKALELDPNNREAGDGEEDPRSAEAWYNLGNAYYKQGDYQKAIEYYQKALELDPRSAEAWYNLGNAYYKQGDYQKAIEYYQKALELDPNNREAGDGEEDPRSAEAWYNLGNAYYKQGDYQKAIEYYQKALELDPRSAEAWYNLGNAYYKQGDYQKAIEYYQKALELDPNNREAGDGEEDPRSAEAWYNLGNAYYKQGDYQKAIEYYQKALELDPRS

B1: 4TBP-CTPR8 (designed binder)
chain: AEAWYNLGNAYYKQGDYQKAIEYYQKALELDPNNREAGDGEEDPRSAEAWYNLGNAYYKQGDYQKAIEYYQKALELDPRSAEAWYNLGNAYYKQGDYQKAIEYYQKALELDPNNREAGDGEEDPRSAEAWYNLGNAYYKQGDYQKAIEYYQKALELDPRSAEAWYNLGNAYYKQGDYQKAIEYYQKALELDPNNREAGDGEEDPRSAEAWYNLGNAYYKQGDYQKAIEYYQKALELDPRSAEAWYNLGNAYYKQGDYQKAIEYYQKALELDPNNREAGDGEEDPRSAEAWYNLGNAYYKQGDYQKAIEYYQKALELDPRS
B2: Tankyrase-2 Ankyrin Repeat Cluster 4 (residues 488-649) (domain or fragment, human, UniProt Q9H2K2 488-649, looked up)
chain: GNSEADRQLLEAAKAGDVETVKKLCTVQSVNCRDIEGRQSTPLHFAAGYNRVSVVEYLLQHGADVHAKDKGGLVPLHNACSYGHYEVAELLVKHGAVVNVADLWKFTPLHEAAAKGKYEICKLLLQHGADPTKKNRDGNTPLDLVKDGDTDIQDLLRGDAAL
notes: human tankyrase 2, fourth ankyrin-repeat cluster (ARC4), residues 488-649; also called hTNKS2 ARC4; TNKS2 ARC4; source: E. coli, purified (IMAC, SEC; His tag removed with thrombin)
B3: Tankyrase-2 Ankyrin Repeat Clusters 1-3 (residues 2-485) (domain or fragment, human, UniProt Q9H2K2 2-485, looked up)
chain: SGRRCAGGGAACASAAAEAVEPAARELFEACRNGDVERVKRLVTPEKVNSRDTAGRKSTPLHFAAGFGRKDVVEYLLQNGANVQARDDGGLIPLHNACSFGHAEVVNLLLRHGADPNARDNWNYTPLHEAAIKGKIDVCIVLLQHGAEPTIRNTDGRTALDLADPSAKAVLTGEYKKDELLESARSGNEEKMMALLTPLNVNCHASDGRKSTPLHLAAGYNRVKIVQLLLQHGADVHAKDKGDLVPLHNACSYGHYEVTELLVKHGACVNAMDLWQFTPLHEAASKNRVEVCSLLLSYGADPTLLNCHNKSAIDLAPTPQLKERLAYEFKGHSLLQAAREADVTRIKKHLSLEMVNFKHPQTHETALHCAAASPYPKRKQICELLLRKGANINEKTKEFLTPLHVASEKAHNDVVEVVVKHEAKVNALDNLGQTSLHRAAYCGHLQTCRLLLSYGCDPNIISLQGFTALQMGNENVQQLLQEGI
notes: human tankyrase 2, ankyrin-repeat clusters 1-3, residues 2-485; also called hTNKS2 ARC1–3; source: E. coli, purified (IMAC, SEC; His tag removed with thrombin)
B4: 1TBP-CTPR2 (designed binder)
chain: AEAWYNLGNAYYKQGDYQKAIEYYQKALELDPNNREAGDGEEDPRSAEAWYNLGNAYYKQGDYQKAIEYYQKALELDPRS
B5: 2TBP-CTPR4 (designed binder)
chain: AEAWYNLGNAYYKQGDYQKAIEYYQKALELDPNNREAGDGEEDPRSAEAWYNLGNAYYKQGDYQKAIEYYQKALELDPRSAEAWYNLGNAYYKQGDYQKAIEYYQKALELDPNNREAGDGEEDPRSAEAWYNLGNAYYKQGDYQKAIEYYQKALELDPRS

Assays:
Conditions in all cases: both partners purified
[1] = target: B2; experiment: ITC; TNKS2 ARC4 (500 μM) titrated into the cell holding one nTBP-CTPR2n construct (50, 25, 16.6 or 12.5 μM); 25 °C; 10 mM sodium phosphate, 150 mM NaCl, 0.5 mM TCEP, pH 7.4; OneSite model
[2] = target: B5; experiment: as above
[3] = target: T1, 3TBP-CTPR6; experiment: as above
[4] = target: B1; experiment: as above
[5] = target: B4; experiment: as above
[6] = target: T1, 3TBP-CTPR6; experiment: co-sedimentation; co-precipitation assay: 10 μM hTNKS2 ARC1–3 mixed with an equal volume of CTPR protein (fixed or increasing concentrations) in 50 mM Tris-HCl, 150 mM NaCl, 0.5 mM TCEP, pH 7.3; 1 h at room temperature, 20 000g 30 min; supernatant and pellet on SDS-PAGE, band densities give the stoichiometry in the pellet

Binder: B1
Kd [1]: 13.6 µM and 15.5 µM

Binder: B2
stoichiometry N [2]: 2.18 and 2.05
stoichiometry N [3]: 2.77 and 2.72
stoichiometry N [4]: 3.38 and 2.91
stoichiometry N [5]: 1.01 and 0.9

Binder: B3
stoichiometry N [6]: 1

Binder: B4
Kd [1]: 14.7 µM and 12.8 µM

Binder: B5
Kd [1]: 11.9 µM and 18.6 µM
